The chains are these.
B1: variant 12480 (antibody, human IgG1, kappa)
heavy: EVQLVESGGGLVQPGGSLRLSCAASGFTFQDYTMDWVRQAPGKGLEWVADVNPNSGGSIYNQRFKGRFTLSVDRSKNTLYLQMNSLRAEDTAVYYCARNLGPSFYFDYWGQGTLVTVSSASTKGPSVFPLAPSSKSTSGGTAALGCLVKDYFPEPVTVSWNSGALTSGVHTFPAVLQSSGLYSLSSVVTVPSSSLGTQTYICNVNHKPSNTKVDKKVEPKSCDKTHTCPPCPAPELLGGPSVFLFPPKPKDTLMISRTPEVTCVVVDVSHEDPEVKFNWYVDGVEVHNAKTKPREEQYNSTYRVVSVLTVLHQDWLNGKEYKCKVSNKALPAPIEKTISKAKGQPREPQVYVYPPSRDELTKNQVSLTCLVKGFYPSDIAVEWESNGQPENNYKTTPPVLDSDGSFALVSKLTVDKSRWQQGNVFSCSVMHEALHNHYTQKSLSLSPG
light: not shown
chain: not shown
notes: OA pertuzumab variant, HC T30Q (Kabat); also called v12480
B2: variant 12489 (antibody, human IgG1, kappa)
heavy: B1 heavy with Q30T, G57M
light: not shown
chain: not shown
notes: OA pertuzumab variant, HC G56M (Kabat); also called v12489
B3: variant 12497 (antibody, human IgG1, kappa)
heavy: B1 heavy with Q30T, Q62R
light: not shown
chain: not shown
notes: OA pertuzumab variant, HC Q61R (Kabat); also called v12497
B4: variant 12514 (antibody, human IgG1, kappa)
heavy: B1 heavy with Q30T, S103W
light: not shown
chain: not shown
notes: OA pertuzumab variant, HC S99W (Kabat); also called v12514
B5: variant 12506 (antibody, human IgG1, kappa)
heavy: B1 heavy with Q30T, K76W
light: not shown
chain: not shown
notes: OA pertuzumab variant, HC K75W (Kabat); also called v12506
B6: variant 12503 (antibody, human IgG1, kappa)
heavy: B1 heavy with Q30T, S75H
light: not shown
chain: not shown
notes: OA pertuzumab variant, HC S74H (Kabat); also called v12503
B7: variant 12502 (antibody, human IgG1, kappa)
heavy: B1 heavy with Q30T, S75W
light: not shown
chain: not shown
notes: OA pertuzumab variant, HC S74W (Kabat); also called v12502
B8: variant 12505 (antibody, human IgG1, kappa)
heavy: B1 heavy with Q30T, K76E
light: not shown
chain: not shown
notes: OA pertuzumab variant, HC K75E (Kabat); also called v12505
B9: variant 12520 (antibody, human IgG1, kappa)
heavy: B1 heavy with Q30R, G57Y
light: not shown
chain: not shown
notes: also called v12520
B10: variant 12490 (antibody, human IgG1, kappa)
heavy: B1 heavy with Q30T, G57Y
light: not shown
chain: not shown
notes: OA pertuzumab variant, HC G56Y (Kabat); also called v12490
B11: variant 12504 (antibody, human IgG1, kappa)
heavy: B1 heavy with Q30T, S75A
light: not shown
chain: not shown
notes: OA pertuzumab variant, HC S74A (Kabat); also called v12504
B12: variant 12538 (antibody, human IgG1, kappa)
heavy: B1 heavy with Q30T
light: not shown
chain: not shown
notes: OA pertuzumab variant, LC Y49W (Kabat); also called v12538
B13: variant 12540 (antibody, human IgG1, kappa)
heavy: B1 heavy with Q30T
light: not shown
chain: not shown
notes: OA pertuzumab variant, LC Y96V (Kabat); also called v12540
B14: variant 12482 (antibody, human IgG1, kappa)
heavy: B1 heavy with Q30F
light: not shown
chain: not shown
notes: OA pertuzumab variant, HC T30F (Kabat); also called v12482
B15: variant 12491 (antibody, human IgG1, kappa)
heavy: B1 heavy with Q30T, G57F
light: not shown
chain: not shown
notes: OA pertuzumab variant, HC G56F (Kabat); also called v12491
B16: variant 12536 (antibody, human IgG1, kappa)
heavy: B1 heavy with Q30T
light: not shown
chain: not shown
notes: OA pertuzumab variant, LC Y96G (Kabat); also called v12536
B17: Variant 12505 (antibody, human IgG1, kappa)
heavy: B1 heavy with Q30T, K76E
light: not shown
chain: not shown
notes: OA (one-armed) format; clones 7843, 1811, 4372; also called v12505
B18: Variant 12490 (antibody, human IgG1, kappa)
heavy: B1 heavy with Q30T, G57Y
light: not shown
chain: not shown
notes: OA (one-armed) format; clones 7825, 1811, 4372; also called v12490
B19: Variant 12502 (antibody, human IgG1, kappa)
heavy: B1 heavy with Q30T, S75W
light: not shown
chain: not shown
notes: OA (one-armed) format; clones 7840, 1811, 4372; also called v12502
B20: Variant 12479 (antibody, human IgG1, kappa)
heavy: B1 heavy with Q30N
light: not shown
chain: not shown
notes: OA (one-armed) format; clones 7814, 1811, 4372; also called v12479
B21: Variant 12482 (antibody, human IgG1, kappa)
heavy: B1 heavy with Q30F
light: not shown
chain: not shown
notes: OA (one-armed) format; clones 7817, 1811, 4372; also called v12482
B22: Variant 12478 (antibody, human IgG1, kappa)
heavy: B1 heavy with Q30Y
light: not shown
chain: not shown
notes: OA (one-armed) format; clones 7813, 1811, 4372; also called v12478
B23: Variant 12506 (antibody, human IgG1, kappa)
heavy: B1 heavy with Q30T, K76W
light: not shown
chain: not shown
notes: OA (one-armed) format; clones 7844, 1811, 4372; also called v12506
B24: Variant 12480 (antibody, human IgG1, kappa)
heavy: B1 heavy
light: not shown
chain: not shown
notes: OA (one-armed) format; clones 7815, 1811, 4372; also called v12480
B25: Variant 12491 (antibody, human IgG1, kappa)
heavy: B1 heavy with Q30T, G57F
light: not shown
chain: not shown
notes: OA (one-armed) format; clones 7826, 1811, 4372; also called v12491

Where a chain is given by its changes, count along the chain named. Names and notes keep the numbering of the source.

One may read the Kd as the equilibrium constant for the complex coming apart.

One assay concerns the target T1, Recombinant human HER2 (human, UniProt P04626 23-652).
T1 construct: extracellular domain; analyte of the SPR assays; also called HER2 ECD; ECD2 of HER2
Kind of assay: SPR, variant captured on anti-human Fc, HER2 flowed, 25 C, pre-SEC.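 Note: HER2 extracellular domain binding on Biacore T200, CM5 chip with amine-coupled anti-human Fc, duplicate antigen dilutions, global 1:1 Langmuir fit, measured after protein A purification.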 On the technique in general: In SPR one partner is held on a chip, and binding of the other changes the refractive index at the surface.
In the case of B1, the equilibrium dissociation constant (Kd) was determined as 4.2 nM.

On to B2, for which the Kd is 14 nM.

Consider B3, for which the Kd amounted to 14 nM.

On to B4, for which the Kd came out at 3.4 nM.

Consider B5, for which the Kd came to 0.64 nM.

Consider B6, for which the Kd was determined as 15 nM.

On to B7, for which the Kd stood at 2.4 nM.

On to B8, for which the Kd is 4.6 nM.

Regarding B9, the Kd turned out to be 5.4 nM.

Regarding B10, the Kd was 7.7 nM.

For B11, the Kd was 18 nM.

In the case of B12, the Kd came to 4.7 nM.

As to B13, the Kd is 12 nM.

On to B14, for which the Kd turned out to be 7.7 nM.

For B15, the Kd was 9.1 nM.

Take B16: the Kd is 4.8 nM.

Another assay addresses T1, Recombinant human HER2. Kind of assay: SPR, variant captured on anti-human Fc, HER2 flowed, 25 C, post-SEC.
Experimental: (§1) The affinity towards HER2 ECD of the samples was measured by SPR on a Biacore T200 as follows. Between 2000 and 4000 RU of anti-human Fc injected at concentration between 5 and 10 μg/ml was immobilized on a CM5 chip using standard amine coupling. Antigen-binding constructs were captured on the anti-human Fc (injected at concentration at 0.51 microg/mL in PBST, 1 min at 10 microl/min) at response levels ranging from 120-270 RU. […] HER2 dilutions were analyzed in duplicates. Sensograms were fit globally to a 1: 1 Langmuir binding model, using the software provided with the Biacore T200. All experiments were conducted at 25° C.
(§2) The affinity of antigen-binding constructs in OA format was determined by SPR following protein A purification. […] Antigen-binding constructs in FSA format were purified by protein A affinity and SEC prior to assessment of affinity by SPR.
For B1, the dissociation constant Kd was determined as 4.4 nM.

Take B2: the Kd came to 13 nM.

B3: the Kd amounted to 13 nM.

As to B4, the Kd worked out at 4.6 nM.

Take B5: the Kd was determined as 0.68 nM.

Consider B6, for which the Kd was found to be 25 nM.

Take B7: the Kd is 3.9 nM.

As to B8, the Kd worked out at 5.7 nM.

On to B9, for which the Kd was 6.6 nM.

Take B10: the Kd is 7.8 nM.

With B11, the Kd turned out to be 27 nM.

Regarding B12, the dissociation constant Kd came out at 4.4 nM.

Turning to B13, the Kd was found to be 11 nM.

Take B14: the Kd worked out at 7.3 nM.

With B15, the Kd amounted to 10 nM.

With B16, the Kd was determined as 5.2 nM.

Another assay has as its target T1, Recombinant human HER2. The assay is described as follows: SPR, pre-SEC; ratio to WT v10013.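 Note: SPR on Biacore T200 at 25 °C, constructs captured via anti-human Fc on CM5 chip, HER2 ECD as analyte, 1:1 Langmuir global fit, after protein A purification.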
On to B1, for which the “Ka, mut/Ka, WT” value was found to be 4.6.

Take B2: the “Ka, mut/Ka, WT” value was determined as 1.4.

Consider B3, for which the “Ka, mut/Ka, WT” value stood at 1.4.

Turning to B4, the “Ka, mut/Ka, WT” value came out at 5.8.

On to B5, for which the “Ka, mut/Ka, WT” value is 30.6.

In the case of B6, the “Ka, mut/Ka, WT” value came out at 1.3.

As for B7, the “Ka, mut/Ka, WT” value worked out at 8.2.

Turning to B8, the “Ka, mut/Ka, WT” value came to 4.2.

As to B9, the “Ka, mut/Ka, WT” value stood at 3.6.

For the molecule B10, the “Ka, mut/Ka, WT” value worked out at 2.5.

For the molecule B11, the “Ka, mut/Ka, WT” value worked out at 1.1.

Take B12: the “Ka, mut/Ka, WT” value stood at 4.2.

B13: the “Ka, mut/Ka, WT” value stood at 1.6.

Regarding B14, the “Ka, mut/Ka, WT” value turned out to be 2.5.

Consider B15, for which the “Ka, mut/Ka, WT” value came to 2.1.

B16: the “Ka, mut/Ka, WT” value was determined as 4.1.

Another assay concerns the target T2, Recombinant human HER2 (human, UniProt P04626 23-652).
T2 construct: extracellular domain; Analyte of the SPR assays; also called HER2 ECD; ECD2 of HER2
The assay is described as follows: calculated from the SPR Ka ratio to WT, -RTln(Ka,mut/Ka,WT), 298 K.
On to B17, for which the ΔΔG is -0.8 kcal/mol.

For the molecule B18, the ΔΔG was -0.6 kcal/mol.

For the molecule B19, the ΔΔG is -1 kcal/mol.

On to B20, for which the ΔΔG was -0.9 kcal/mol.

Take B21: the ΔΔG was -0.6 kcal/mol.

As to B22, the ΔΔG is -0.8 kcal/mol.

Consider B23, for which the ΔΔG is -2 kcal/mol.

For the molecule B24, the ΔΔG was -0.9 kcal/mol.

Regarding B25, the ΔΔG was -0.4 kcal/mol.

In a further assay the target is T2, Recombinant human HER2. The assay is described as follows: SPR post-SEC (value taken over from Table 5); Ka ratio to WT v10013.
Experimental: as §1, §2
For the molecule B17, the “Ka, mut/Ka, WT” value came out at 3.7 fold.

For the molecule B18, the “Ka, mut/Ka, WT” value is 2.7 fold.

With B19, the “Ka, mut/Ka, WT” value stood at 5.3 fold.

On to B20, for which the “Ka, mut/Ka, WT” value was 4.7 fold.

Take B21: the “Ka, mut/Ka, WT” value is 2.9 fold.

As for B22, the “Ka, mut/Ka, WT” value came to 3.6 fold.

Consider B23, for which the “Ka, mut/Ka, WT” value stood at 30.6 fold.

For B24, the “Ka, mut/Ka, WT” value came out at 4.7 fold.

B25: the “Ka, mut/Ka, WT” value turned out to be 2.1 fold.

In a further assay the target is T1, Recombinant human HER2. Kind of assay: SPR, post-SEC; ratio to WT v10013.
Experimental: as §1, §2
For the molecule B1, the “Ka, mut/Ka, WT” value came out at 4.7.

As for B2, the “Ka, mut/Ka, WT” value worked out at 1.6.

For the molecule B3, the “Ka, mut/Ka, WT” value is 1.6.

Regarding B4, the “Ka, mut/Ka, WT” value stood at 4.5.

In the case of B5, the “Ka, mut/Ka, WT” value came out at 30.6.

Turning to B6, the “Ka, mut/Ka, WT” value turned out to be 0.8.

As to B7, the “Ka, mut/Ka, WT” value was 5.3.

Consider B8, for which the “Ka, mut/Ka, WT” value came out at 3.7.

Turning to B9, the “Ka, mut/Ka, WT” value amounted to 3.1.

For B10, the “Ka, mut/Ka, WT” value was found to be 2.7.

For the molecule B11, the “Ka, mut/Ka, WT” value turned out to be 0.8.

Consider B12, for which the “Ka, mut/Ka, WT” value came out at 4.8.

Turning to B13, the “Ka, mut/Ka, WT” value came out at 1.9.

Turning to B14, the “Ka, mut/Ka, WT” value is 2.9.

As to B15, the “Ka, mut/Ka, WT” value is 2.1.

In the case of B16, the “Ka, mut/Ka, WT” value came to 4.
